± gives the uncertainty stated by the source.
Assay: self-splicing fitness, log relative to wild type (ln ratio); higher = more splicing; Tetrahymena group I intron in knt gene, E. coli kanamycin selection, DiMSum; sequences stand for … in CUCUCU…GGAGGGAAAAGUUAUCAGGCAUGCACCUGGUAGCUAGUCUUUAAACCAAUAGAUUGCAUCGGUUUAAAAGGCAAGACCGUCAAAUUGCGGGAAAGGGGUCAACAGCCGUUCAGUACCAAGUCUCAGGGGAAACUUUGAGAUGGCCUUGCAAAGGGUAUGGUAAUAAGCUGACGGACAUGGUCCUAACCACGCAGCCAAGUCCUAAGUCAACAGAUCUUCUGUUGAUAUGGAUGCAGUUCACAGACUAAAUGUCGGUCGGGGAAGAUGUAUUCUUCUCAUAAGAUAUAGUCGGACCUCUCCUUAAUGGGAGCUAGCGGAUGAAGUGAUGCAACACUGGAGCCGCUGGGAACUAAUUUGUAUGCGAAAGUAUAUUGAUUAGUUUUGGAGUACUCGUGGUCG
How it was run: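 The eight P1ex-region nucleotides of an intron in the knt kanamycin-resistance gene on pET-22b(+) were all randomised and the library put into E. coli BL21(DE3). Six replicate transformations were grown overnight at 37°C or 30°C on LB agar with or without 25 μg/mL kanamycin, together with 100 μg/mL carbenicillin, 50 μM IPTG and 0.2% rhamnose. Colonies were pooled and amplicon-sequenced on an Illumina HiSeq 2500. Fitness from DiMSum is the error-weighted combination of wild-type-normalised replicate fold changes, kanamycin over none.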

Question: Which results are given for AUACAGCAAUAUUACGAAAG?
Answer: self-splicing fitness (ln) (30 °C): -2.62 ± 0.19; self-splicing fitness (ln) (37 °C): -0.9 ± 0.17

Question: Which “self-splicing fitness (ln)” value (30 °C) does the source give for GCGAAGCAAUAUUACGUCUU here?
Answer: -2.56 ± 0.15

Question: What about the “self-splicing fitness (ln)” value (37 °C) of the same sequence?
Answer: -2.06 ± 0.13

Question: For CCAGAGCAAUAUUACGCAUA, which “self-splicing fitness (ln)” value (30 °C) is on record?
Answer: -3.74 ± 0.23

Question: And the “self-splicing fitness (ln)” value (37 °C)?
Answer: -2.48 ± 0.24

Question: Which results are given for CUAAAGCAAUAUUACGGACA?
Answer: self-splicing fitness (ln) (30 °C): -3.1 ± 0.17; self-splicing fitness (ln) (37 °C): -2.34 ± 0.21

Question: What does the source list for GAUCAGCAAUAUUACGUACC?
Answer: self-splicing fitness (ln) (30 °C): -0.223 ± 0.073; self-splicing fitness (ln) (37 °C): -0.245 ± 0.099

Question: What does the source list for AGGGAGCAAUAUUACGGGAA?
Answer: self-splicing fitness (ln) (30 °C): -1.37 ± 0.38; self-splicing fitness (ln) (37 °C): -2.58 ± 0.37

Question: What does the source list for CCUAAGCAAUAUUACGUUCU?
Answer: self-splicing fitness (ln) (30 °C): -2.57 ± 0.16; self-splicing fitness (ln) (37 °C): -3.16 ± 0.34

Question: With UGGAAGCAAUAUUACGCUCG as the sequence, how does the “self-splicing fitness (ln)” value (30 °C) read?
Answer: -0.853 ± 0.13

Question: And the “self-splicing fitness (ln)” value (37 °C)?
Answer: -0.272 ± 0.15

Question: With CACAAGCAAUAUUACGUGCG as the sequence, how does the “self-splicing fitness (ln)” value (30 °C) read?
Answer: -2.32 ± 0.098

Question: And the “self-splicing fitness (ln)” value (37 °C)?
Answer: -0.908 ± 0.082

Question: Which “self-splicing fitness (ln)” value (30 °C) does the source give for GAAGAGCAAUAUUACGCGCC here?
Answer: -3.56 ± 0.47

Question: What about the “self-splicing fitness (ln)” value (37 °C) of the same sequence?
Answer: -1.43 ± 0.26

Question: Which results are given for AGUAAGCAAUAUUACGGUAC?
Answer: self-splicing fitness (ln) (30 °C): -2.95 ± 0.24; self-splicing fitness (ln) (37 °C): -2.27 ± 0.31

Question: For CCGGAGCAAUAUUACGUCGG, which “self-splicing fitness (ln)” value (30 °C) is on record?
Answer: -3.63 ± 0.21

Question: What about the “self-splicing fitness (ln)” value (37 °C) of the same sequence?
Answer: -2.82 ± 0.3

Question: What does the source list for GCCCAGCAAUAUUACGCGGC?
Answer: self-splicing fitness (ln) (30 °C): -4.94 ± 0.39; self-splicing fitness (ln) (37 °C): -2.51 ± 0.24

Question: With UCUUAGCAAUAUUACGGCGU as the sequence, how does the “self-splicing fitness (ln)” value (30 °C) read?
Answer: -0.535 ± 0.15

Question: What about the “self-splicing fitness (ln)” value (37 °C) of the same sequence?
Answer: -1.19 ± 0.2

Question: With GAGAAGCAAUAUUACGACCU as the sequence, how does the “self-splicing fitness (ln)” value (30 °C) read?
Answer: 0.392 ± 0.1

Question: What about the “self-splicing fitness (ln)” value (37 °C) of the same sequence?
Answer: -0.128 ± 0.096

Question: For CGGGAGCAAUAUUACGUCAA, which “self-splicing fitness (ln)” value (30 °C) is on record?
Answer: -2.14 ± 0.19

Question: And the “self-splicing fitness (ln)” value (37 °C)?
Answer: -2.79 ± 0.38

Question: Which “self-splicing fitness (ln)” value (30 °C) does the source give for GUCGAGCAAUAUUACGUGUU here?
Answer: -4.22 ± 0.28

Question: What about the “self-splicing fitness (ln)” value (37 °C) of the same sequence?
Answer: -2.09 ± 0.25

Question: For GUAAAGCAAUAUUACGGGUC, which “self-splicing fitness (ln)” value (30 °C) is on record?
Answer: -1.78 ± 0.1

Question: And the “self-splicing fitness (ln)” value (37 °C)?
Answer: -2.99 ± 0.12

Question: For CCCUAGCAAUAUUACGCUCU, which “self-splicing fitness (ln)” value (30 °C) is on record?
Answer: -4.04 ± 0.28

Question: And the “self-splicing fitness (ln)” value (37 °C)?
Answer: -1.45 ± 0.2

Question: Which “self-splicing fitness (ln)” value (30 °C) does the source give for GGUCAGCAAUAUUACGCACG here?
Answer: 0.0799 ± 0.1

Question: What about the “self-splicing fitness (ln)” value (37 °C) of the same sequence?
Answer: 0.287 ± 0.13

Question: Which “self-splicing fitness (ln)” value (30 °C) does the source give for UGGAAGCAAUAUUACGACUU here?
Answer: 0.319 ± 0.15

Question: And the “self-splicing fitness (ln)” value (37 °C)?
Answer: 0.0401 ± 0.17

Question: What does the source list for UGAUAGCAAUAUUACGAGUA?
Answer: self-splicing fitness (ln) (30 °C): -1.71 ± 0.16; self-splicing fitness (ln) (37 °C): -1.23 ± 0.13

Question: Which “self-splicing fitness (ln)” value (30 °C) does the source give for CCUGAGCAAUAUUACGAGUU here?
Answer: -3.99 ± 0.39

Question: Which “self-splicing fitness (ln)” value (37 °C) does the source give for CUACAGCAAUAUUACGCAUU here?
Answer: -2.83 ± 0.25

Question: Which “self-splicing fitness (ln)” value (30 °C) does the source give for GGCAAGCAAUAUUACGCUCG here?
Answer: -1.66 ± 0.12

Question: What about the “self-splicing fitness (ln)” value (37 °C) of the same sequence?
Answer: -1.4 ± 0.19

Question: Which “self-splicing fitness (ln)” value (37 °C) does the source give for ACAGAGCAAUAUUACGCAGA here?
Answer: -2.25 ± 0.33

Question: For GGCUAGCAAUAUUACGCGUU, which “self-splicing fitness (ln)” value (30 °C) is on record?
Answer: -0.656 ± 0.066

Question: And the “self-splicing fitness (ln)” value (37 °C)?
Answer: -0.29 ± 0.08

Question: Which results are given for CCACAGCAAUAUUACGGAAU?
Answer: self-splicing fitness (ln) (30 °C): -3.23 ± 0.17; self-splicing fitness (ln) (37 °C): -2.21 ± 0.18

Question: What does the source list for GAUAAGCAAUAUUACGAUUC?
Answer: self-splicing fitness (ln) (30 °C): -1.39 ± 0.14; self-splicing fitness (ln) (37 °C): -1.41 ± 0.17

Question: Which “self-splicing fitness (ln)” value (30 °C) does the source give for CUGGAGCAAUAUUACGUGUC here?
Answer: -3.17 ± 0.2

Question: What about the “self-splicing fitness (ln)” value (37 °C) of the same sequence?
Answer: -3.18 ± 0.27

Question: For CGGCAGCAAUAUUACGAGGA, which “self-splicing fitness (ln)” value (30 °C) is on record?
Answer: -4.01 ± 0.43

Question: What about the “self-splicing fitness (ln)” value (37 °C) of the same sequence?
Answer: -2.28 ± 0.26

Question: With UUGGAGCAAUAUUACGUCUC as the sequence, how does the “self-splicing fitness (ln)” value (30 °C) read?
Answer: -2.96 ± 0.33

Question: What about the “self-splicing fitness (ln)” value (37 °C) of the same sequence?
Answer: -2.41 ± 0.33

Question: For AUCAAGCAAUAUUACGGAAA, which “self-splicing fitness (ln)” value (30 °C) is on record?
Answer: -2.58 ± 0.24

Question: And the “self-splicing fitness (ln)” value (37 °C)?
Answer: -1.7 ± 0.21

Question: With CCAAAGCAAUAUUACGCAAA as the sequence, how does the “self-splicing fitness (ln)” value (30 °C) read?
Answer: -3.41 ± 0.25

Question: And the “self-splicing fitness (ln)” value (37 °C)?
Answer: -1.72 ± 0.17

Question: For CACCAGCAAUAUUACGGCAU, which “self-splicing fitness (ln)” value (30 °C) is on record?
Answer: -2.64 ± 0.066

Question: And the “self-splicing fitness (ln)” value (37 °C)?
Answer: -0.735 ± 0.069

Question: For UGUCAGCAAUAUUACGUACG, which “self-splicing fitness (ln)” value (30 °C) is on record?
Answer: -0.208 ± 0.15

Question: And the “self-splicing fitness (ln)” value (37 °C)?
Answer: 0.45 ± 0.15

Question: With GCAGAGCAAUAUUACGGUGU as the sequence, how does the “self-splicing fitness (ln)” value (30 °C) read?
Answer: -4.3 ± 0.32

Question: What about the “self-splicing fitness (ln)” value (37 °C) of the same sequence?
Answer: -2.31 ± 0.16

Question: With GUACAGCAAUAUUACGGUAG as the sequence, how does the “self-splicing fitness (ln)” value (30 °C) read?
Answer: -1.31 ± 0.062

Question: What about the “self-splicing fitness (ln)” value (37 °C) of the same sequence?
Answer: -0.303 ± 0.068

Reference: the supplement of paper PMC7877785
